Assay [1] has as its target Myc-Noggin4 (Xenopus laevis). The assay is described as follows: co-IP; quantitative co-immunoprecipitation (qCoIP): gradually decreasing concentrations of Flag-Wnt8 added to a standard amount of Myc-Noggin4 pre-mixed with anti-Myc resin; bound and unbound Flag-Wnt8 by quantitative Western blot against Flag-BAP standard.
Assay [2] has as its target 3Myc-His6-Noggin4 (Xenopus laevis). The experiment in a line: SPR; Biacore T200; 3Myc-6His-Noggin4 immobilised on CM5 chip (1,500 RU) by amine coupling; 6His-Wnt8 injected; HBS-EP, 25 °C; equilibrium responses fitted to a 1:1 Langmuir model.
The target in assay [3] is T1, TagRFP-XWnt8 (Xenopus laevis, UniProt P28026 23-358).
T1 construct: Wnt8 (XWnt8), Xenopus laevis, secreted fusion with TagRFP; also called TagRFP-Wnt8
T1 sequence (looked up): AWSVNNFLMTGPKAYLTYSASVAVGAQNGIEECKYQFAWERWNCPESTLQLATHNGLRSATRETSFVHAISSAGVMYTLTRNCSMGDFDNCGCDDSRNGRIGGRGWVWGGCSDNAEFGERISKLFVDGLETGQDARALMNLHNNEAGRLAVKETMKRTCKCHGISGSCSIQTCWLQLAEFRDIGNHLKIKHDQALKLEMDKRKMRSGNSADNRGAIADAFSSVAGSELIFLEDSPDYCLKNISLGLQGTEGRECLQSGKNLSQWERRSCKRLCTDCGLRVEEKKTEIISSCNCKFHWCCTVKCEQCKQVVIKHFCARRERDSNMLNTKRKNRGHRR
The assay is described as follows: FRAP in living embryos; EGFP-Noggin4 bleached in a single intercellular space of the animal ectoderm that also holds TagRFP-Wnt8 (quasi-immobile); about 1 μM of each; Kd selected to fit the FRAP kinetics by a diffusion-adsorption model. Conditions: partners not purified.

B1: Flag-Wnt8 (ligand)
chain: T1 sequence (looked up)
B1: the Kd in assay [1] was 10 nM.

B2: Xenopus laevis recombinant Wnt8 labeled by 6-Hys-tag at the N-terminus (ligand)
chain: T1 sequence (looked up)
Molecule B2 showed a Kd in assay [2] of 90 nM.

B3: EGFP-Noggin4 (natural protein)
chain: MVHILVISWLMTLGTWGPTAICAPTNDLEPHNRTQKDMDIGSLRRQLSSGTRPYSLSLSPQDYHYSPKPKHLRVSRLLRLLGSSFDPFWMSVEQPADYSTSLLSTLSQDLYDGASRYRKKLAQEVQGLNFDSLQLPTELSANASQNIQNEIRQWLVQRASCQLTSTWVDLGTVFWPRWVRHTDCDGTNTACSWPPGMACRQAQFTQIKLLAWHCWMKDTGLGWATQQCTWRQVPYPVVAACKCTCR
modifications: No candidate is Noggin4 (P49011 is Noggin1). The paper reports two pseudoalleles and does not say which was used, so nog4.L is assumed. The Table S1 primers show the mature part starting at GQTNDL …
For the molecule B3, in assay [3], the Kd is at most 100 nM.

Source of the values: article PMC4789793, “Noggin4 is a long-range inhibitor of Wnt8 signalling that regulates head development in Xenopus laevis” (Scientific Reports, 2016).
